Experimental data as given in US20260217843A1 (APOGEE THERAPEUTICS, published 2026).

What was measured:
[1] = target: T1, human CD16a 176F (human, UniProt P08637 17-208); assay: SPR (Biacore 8K+), antibody captured by anti-human IgG Fc, receptor injected
T1 construct: numbering not explained
Method: (§1) Briefly, a CM5 Series S sensor chip functionalized with anti-human IgG Fc antibody was used to capture antibodies at 5 μg/mL. […] The chip was regenerated with 10 mM glycine pH 1.5 and 10 mM NaOH between runs.

[2] = target: T2, human CD32a 167R (human, UniProt P12318 36-218); assay: as above
T2 construct: numbering not explained
T2 sequence (looked up): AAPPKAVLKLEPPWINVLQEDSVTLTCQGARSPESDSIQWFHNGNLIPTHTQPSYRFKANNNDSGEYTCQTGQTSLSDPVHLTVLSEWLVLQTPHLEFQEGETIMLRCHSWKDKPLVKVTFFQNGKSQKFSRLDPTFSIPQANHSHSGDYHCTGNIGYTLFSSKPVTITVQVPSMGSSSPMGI
Method: as §1

[3] = target: T3, human CD32a 167H (human, UniProt P12318 36-218); assay: as above
T3 construct: numbering not explained
T3 sequence (looked up): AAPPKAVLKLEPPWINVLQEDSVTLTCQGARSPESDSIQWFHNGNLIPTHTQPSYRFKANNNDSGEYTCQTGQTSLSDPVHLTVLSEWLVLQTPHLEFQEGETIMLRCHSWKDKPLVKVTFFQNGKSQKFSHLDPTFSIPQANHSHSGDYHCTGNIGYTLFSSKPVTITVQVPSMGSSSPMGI
Method: as §1

[4] = target: human CD64 (human, UniProt P12314 16-288); assay: as above
Chain of human CD64 (P12314 16-288 limits assumed): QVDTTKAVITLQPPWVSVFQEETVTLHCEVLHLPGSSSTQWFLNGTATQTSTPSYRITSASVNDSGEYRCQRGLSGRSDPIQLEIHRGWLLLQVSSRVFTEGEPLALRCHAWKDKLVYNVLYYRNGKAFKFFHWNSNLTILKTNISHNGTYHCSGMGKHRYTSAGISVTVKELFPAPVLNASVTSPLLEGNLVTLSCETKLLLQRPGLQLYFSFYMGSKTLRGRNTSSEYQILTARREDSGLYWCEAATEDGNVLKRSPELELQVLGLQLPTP
Method: as §1

[5] = target: T4, human CD16a 176V (human, UniProt P08637 17-208); assay: as above
T4 construct: Allelic variant named only as '176V'; numbering not explained
T4 sequence (P08637 17-208 F176V limits assumed): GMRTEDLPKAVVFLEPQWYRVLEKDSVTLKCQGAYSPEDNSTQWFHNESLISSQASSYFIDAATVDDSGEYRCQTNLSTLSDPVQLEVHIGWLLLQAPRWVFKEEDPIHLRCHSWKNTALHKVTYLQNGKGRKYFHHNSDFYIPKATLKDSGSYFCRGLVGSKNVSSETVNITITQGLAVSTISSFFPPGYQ
Method: as §1

[6] = target: T5, human CD32b (human, UniProt P31994 46-217); assay: as above
T5 sequence (looked up): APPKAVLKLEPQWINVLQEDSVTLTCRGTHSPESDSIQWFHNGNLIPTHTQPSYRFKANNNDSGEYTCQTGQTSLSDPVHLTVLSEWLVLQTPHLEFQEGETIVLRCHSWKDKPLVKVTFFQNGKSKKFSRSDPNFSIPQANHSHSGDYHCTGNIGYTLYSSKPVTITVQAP
Method: as §1

[7] = target: human CD16b (human, UniProt O75015 17-200, limits assumed); assay: as above
Chain of human CD16b (O75015 17-200 limits assumed): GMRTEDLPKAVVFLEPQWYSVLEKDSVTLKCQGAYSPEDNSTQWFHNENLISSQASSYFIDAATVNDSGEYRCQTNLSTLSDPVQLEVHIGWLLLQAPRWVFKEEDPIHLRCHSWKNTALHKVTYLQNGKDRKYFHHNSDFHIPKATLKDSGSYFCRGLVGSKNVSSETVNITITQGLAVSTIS
Method: as §1

[8] = target: T6, hOX40L on hOX40L-expressing CHO cells (human, UniProt P23510 1-183); assay: flow cytometry on hOX40L-expressing CHO cells, gMFI, nonlinear regression
T6 construct: also called cell surface OX40L
T6 sequence: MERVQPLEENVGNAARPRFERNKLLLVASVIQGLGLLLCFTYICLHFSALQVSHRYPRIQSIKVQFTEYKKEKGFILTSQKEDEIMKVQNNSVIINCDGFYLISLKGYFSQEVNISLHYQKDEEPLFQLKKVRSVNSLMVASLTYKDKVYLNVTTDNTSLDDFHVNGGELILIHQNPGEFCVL
Method: Nonlinear regression was performed on geometric mean fluorescence intensity (gMFI) values to determine EC50 values (FIG. 1, TABLE 8).

[9] = target: human FcRn (human, UniProt P55899 24-297; P61769 21-119); assay: SPR (Biacore 8K+), antibody captured by anti-human kappa, human FcRn injected, pH 5.8; pH 5.8
Chain of human FcRn (P55899 24-297 limits assumed, form in doubt, chain 1 of 2): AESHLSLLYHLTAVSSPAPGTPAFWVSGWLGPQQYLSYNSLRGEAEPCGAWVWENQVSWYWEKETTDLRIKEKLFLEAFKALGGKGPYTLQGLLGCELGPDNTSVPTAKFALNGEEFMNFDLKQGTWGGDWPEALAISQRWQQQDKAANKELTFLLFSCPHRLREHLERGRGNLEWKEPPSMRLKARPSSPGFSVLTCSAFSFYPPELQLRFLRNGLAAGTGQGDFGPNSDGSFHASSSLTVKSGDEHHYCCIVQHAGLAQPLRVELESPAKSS
Chain of human FcRn (P61769 21-119 limits assumed, form in doubt, chain 2 of 2): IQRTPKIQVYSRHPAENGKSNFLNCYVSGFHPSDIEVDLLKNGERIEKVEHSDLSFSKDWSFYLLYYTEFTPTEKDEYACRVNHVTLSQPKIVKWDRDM
Method: (§2) Briefly, a CM5 Series S sensor chip functionalized with anti-human kappa antibody was used to capture antibodies at 5 μg/mL. […] The chip was regenerated with 10 mM glycine pH 1.5 and 10 mM NaOH between runs.

[10] = target: T7, C1q; assay: SPR (Biacore 8K+), antibody captured by anti-human IgG Fc, C1q injected at 25 nM, mean response
T7 construct: also called Clq
T7 sequence (P02745 23-245, chain 1 of 3): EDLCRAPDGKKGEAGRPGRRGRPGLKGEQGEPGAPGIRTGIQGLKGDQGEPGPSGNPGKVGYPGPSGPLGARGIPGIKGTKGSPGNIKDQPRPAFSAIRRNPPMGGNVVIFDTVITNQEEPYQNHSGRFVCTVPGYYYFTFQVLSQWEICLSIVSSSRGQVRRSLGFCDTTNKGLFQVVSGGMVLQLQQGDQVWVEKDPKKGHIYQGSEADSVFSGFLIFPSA
T7 sequence (P02746 28-253, chain 2 of 3, further chain): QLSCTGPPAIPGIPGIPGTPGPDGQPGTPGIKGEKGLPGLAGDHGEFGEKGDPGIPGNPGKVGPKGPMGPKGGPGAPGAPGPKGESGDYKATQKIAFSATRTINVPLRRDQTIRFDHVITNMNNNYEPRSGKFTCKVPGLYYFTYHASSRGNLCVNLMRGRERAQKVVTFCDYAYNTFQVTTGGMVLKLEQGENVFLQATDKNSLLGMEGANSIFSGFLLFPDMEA
T7 sequence (P02747 29-245, chain 3 of 3, further chain): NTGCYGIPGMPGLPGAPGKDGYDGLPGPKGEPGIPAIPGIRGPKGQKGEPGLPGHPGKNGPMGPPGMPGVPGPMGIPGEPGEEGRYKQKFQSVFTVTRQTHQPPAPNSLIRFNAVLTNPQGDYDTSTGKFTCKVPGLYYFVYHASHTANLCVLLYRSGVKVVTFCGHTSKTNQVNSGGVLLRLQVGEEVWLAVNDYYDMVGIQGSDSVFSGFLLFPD
Method: as §1

[11] = target: T8, Recombinant Cynomolgus OX40L Protein, His Tag (SINO BIOLOGICAL, Cat. 11057-C07H) (cynomolgus, UniProt G7NVH7 51-183); assay: SPR (Biacore 8K), antibody captured, cynomolgus OX40L injected, 1:1 fit
T8 construct: Bought protein
T8 sequence: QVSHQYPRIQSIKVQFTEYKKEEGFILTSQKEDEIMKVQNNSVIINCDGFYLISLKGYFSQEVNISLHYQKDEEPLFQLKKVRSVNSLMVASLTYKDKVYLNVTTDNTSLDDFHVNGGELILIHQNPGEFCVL
Method: (§3) Samples were injected in a multi-cycle manner over freshly captured mAb, by regenerating the capture surfaces with injection of glycine pH 1.5 for 30 sec at a flow rate of 30 μL/min. The data was processed and analyzed with Biacore Insight Evaluation Software Version 2.0.15.12933 (GE Healthcare) as follows. […] The responses from the two buffer blank injections were then subtracted from the reference subtracted data (2-1) to yield double-referenced data, which were fit to an 1:1 binding model to determine the apparent association (ka) and dissociation rate constants (kd). Their ratio provided the apparent equilibrium dissociation constant or affinity constant (KD=kd/ka).

[12] = target: cynomolgus FcRn (cynomolgus, UniProt Q8SPV9 24-297; Q8SPW0 21-119); assay: SPR (Biacore 8K+), antibody captured by anti-human kappa, cynomolgus FcRn injected, pH 5.8; pH 5.8
Chain of cynomolgus FcRn (Q8SPV9 24-297 limits assumed, chain 1 of 2): as the sequence (P55899 24-297 limits assumed, form in doubt, chain 1 of 2) above, with N39D, E44Q, G99S, S189G, S190N, L217M, S269T counted along it
Chain of cynomolgus FcRn (Q8SPW0 21-119 limits assumed, chain 2 of 2): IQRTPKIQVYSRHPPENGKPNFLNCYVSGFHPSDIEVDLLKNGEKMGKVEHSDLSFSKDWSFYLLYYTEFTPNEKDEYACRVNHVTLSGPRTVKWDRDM
Method: as §2

[13] = target: T9, Recombinant Human OX40L Protein, His Tag (Acro Cat. IL3-H52H4) (human, UniProt P23510 51-183); assay: SPR (Biacore 8K), antibody captured, human OX40L injected, 1:1 fit
T9 construct: Bought His-tagged protein; also called hOX40L
T9 sequence: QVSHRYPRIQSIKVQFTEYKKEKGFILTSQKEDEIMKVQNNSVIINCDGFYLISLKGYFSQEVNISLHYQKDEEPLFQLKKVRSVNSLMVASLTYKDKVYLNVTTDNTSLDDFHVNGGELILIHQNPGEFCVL
Method: as §3

[14] = target: T10, biotinylated hOX40L (human, UniProt P23510 51-183, limits assumed, biotinylated (sites not given)); assay: blocking ELISA: biotinylated hOX40L preincubated with titrated antibody, added to coated hOX40-Fc, Extravidin-HRP
T10 construct: construct not described
T10 sequence: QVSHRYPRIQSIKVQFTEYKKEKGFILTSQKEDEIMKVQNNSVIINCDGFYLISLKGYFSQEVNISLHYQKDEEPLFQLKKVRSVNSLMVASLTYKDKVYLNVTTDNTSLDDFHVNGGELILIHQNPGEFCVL

[15] = target: T11, hOX40L added as soluble protein in cell assays (human, UniProt P23510 51-183, limits assumed); assay: cell-based or functional assay
T11 sequence: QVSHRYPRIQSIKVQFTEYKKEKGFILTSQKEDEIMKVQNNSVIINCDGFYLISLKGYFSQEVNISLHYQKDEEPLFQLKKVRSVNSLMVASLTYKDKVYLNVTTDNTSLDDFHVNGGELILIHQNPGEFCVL

[16] = target: T11, hOX40L added as soluble protein in cell …; assay: cell-based or functional assay; remark: listed apart in the source

T1 sequence (P08637 17-208 limits assumed): as the sequence (P08637 17-208 F176V limits assumed) above, with V160F counted along it

B1: anti-hOX40L antibody clone 114 (antibody, human IgG1, kappa, L234A L235A)
heavy: EVQVVESGGGLVQPGGSLRLSCAASGFTFSNYAMTWVRQSPGKGLEWVSLISGSGGLTKYADSVKGRFTISRDNSKKTLFLQMNSLRAEDTAAYYCVKDEGLTTGEYWGQGTQVTVSSASTKGPSVFPLAPSSKSTSGGTAALGCLVKDYFPEPVTVSWNSGALTSGVHTFPAVLQSSGLYSLSSVVTVPSSSLGTQTYICNVNHKPSNTKVDKKVEPKSCDKTHTCPPCPAPEAAGGPSVFLFPPKPKDTLYITREPEVTCVVVDVSHEDPEVKFNWYVDGVEVHNAKTKPREEQYNSTYRVVSVLTVLHQDWLNGKEYKCKVSNKALPAPIEKTISKAKGQPREPQVYTLPPSRDELTKNQVSLTCLVKGFYPSDIAVEWESNGQPENNYKTTPPVLDSDGSFFLYSKLTVDKSRWQQGNVFSCSVMHEALHNHYTQKSLSLSPG
light: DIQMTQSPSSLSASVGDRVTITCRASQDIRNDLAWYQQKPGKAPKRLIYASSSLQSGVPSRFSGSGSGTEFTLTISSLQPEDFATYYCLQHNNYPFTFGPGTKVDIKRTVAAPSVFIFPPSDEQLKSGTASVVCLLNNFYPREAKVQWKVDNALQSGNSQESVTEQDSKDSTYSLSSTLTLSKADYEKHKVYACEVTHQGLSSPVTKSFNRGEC
**Q.** What does the source list for B1?
**A.** binding result [1]: no binding (tested: 6 µM); binding result [2]: no binding (tested: 8 µM); binding result [3]: no binding (tested: 8 µM); binding result [4]: no binding (tested: 12.5 nM); binding result [5]: no binding (tested: 6 µM); binding result [6]: no binding (tested: 18 µM); binding result [7]: no binding (tested: 10 µM); EC50 [8]: 4.04 nM; Kd [9]: 141 nM; koff [9]: 0.0471 s⁻¹; kon [9]: 333000 M⁻¹ s⁻¹; RU at 25 nM C1q [10]: -4.8 RU; Kd [11]: 0.0336 nM; koff [11]: 7.73e-05 s⁻¹; kon [11]: 2.3e+06 M⁻¹ s⁻¹; Kd [12]: 117 nM; koff [12]: 0.0445 s⁻¹; kon [12]: 381000 M⁻¹ s⁻¹; Kd [13]: 0.106 nM; koff [13]: 0.000114 s⁻¹; kon [13]: 1.07e+06 M⁻¹ s⁻¹; IC50 [14]: 1.12 nM; Donor 1 IC50, IL-2 release by pre-activated human CD4+ T cells with 20 ng/ml human OX40L [15]: 1.25 nM; Donor 2 IC50, IL-2 release by pre-activated human CD4+ T cells with 20 ng/ml human OX40L [15]: 1.19 nM; Donor 3 IC50, IL-2 release by pre-activated human CD4+ T cells with 20 ng/ml human OX40L [15]: 1.18 nM; IC50, luminescence (RLU), hOX40 reporter cells with 50 ng/mL hOX40L [16]: 0.732 nM

B2: anti-hOX40L antibody clone 231 (antibody, human IgG1, kappa, L234A L235A)
heavy: QVQLVQSGTEVKKPGASVKVSCKASGYTFTNYDINWVRQATGQGLEWVGWIHPNTGKTGYAQKFQGRVTMTRDISIGTAYMELNSLRSEDTAVYYCARESYDLWSGHSFNWFDPWGQGTLVTVSSASTKGPSVFPLAPSSKSTSGGTAALGCLVKDYFPEPVTVSWNSGALTSGVHTFPAVLQSSGLYSLSSVVTVPSSSLGTQTYICNVNHKPSNTKVDKKVEPKSCDKTHTCPPCPAPEAAGGPSVFLFPPKPKDTLYITREPEVTCVVVDVSHEDPEVKFNWYVDGVEVHNAKTKPREEQYNSTYRVVSVLTVLHQDWLNGKEYKCKVSNKALPAPIEKTISKAKGQPREPQVYTLPPSRDELTKNQVSLTCLVKGFYPSDIAVEWESNGQPENNYKTTPPVLDSDGSFFLYSKLTVDKSRWQQGNVFSCSVMHEALHNHYTQKSLSLSPG
light: DIQLTQSPSFLSASVGDRVIITCRASQGITSYLAWYQRKPGKAPKLLIYGATTLQSGVPSRFSGSGSGTEFTLTISSLQPEDFATYYCQQLQSYPYTFGQGTKLEIKRTVAAPSVFIFPPSDEQLKSGTASVVCLLNNFYPREAKVQWKVDNALQSGNSQESVTEQDSKDSTYSLSSTLTLSKADYEKHKVYACEVTHQGLSSPVTKSFNRGEC
**Q.** Does B2 bind [1]?
**A.** Result: no binding (tested: 6 µM)

**Q.** Does B2 bind [2]?
**A.** Result: no binding (tested: 8 µM)

**Q.** Does B2 bind [3]?
**A.** Result: no binding (tested: 8 µM)

**Q.** Does B2 bind [4]?
**A.** Result: no binding (tested: 12.5 nM)

**Q.** Does B2 bind [5]?
**A.** Result: no binding (tested: 6 µM)

**Q.** Does B2 bind [6]?
**A.** Result: no binding (tested: 18 µM)

**Q.** Does B2 bind [7]?
**A.** Result: no binding (tested: 10 µM)

**Q.** What about the Kd [9] of the same binder?
**A.** Its Kd is 141 nM.

**Q.** What about the koff [9] of the same binder?
**A.** Its koff is 0.0462 s⁻¹.

**Q.** What about the kon [9] of the same binder?
**A.** The kon was 328000 M⁻¹ s⁻¹.

**Q.** And the “RU at 25 nM C1q” value [10]?
**A.** Its value is 1.8 RU.

**Q.** What about the Kd [11] of the same binder?
**A.** The Kd was 0.0714 nM.

**Q.** What about the koff [11] of the same binder?
**A.** Its koff is 0.000105 s⁻¹.

**Q.** What about the kon [11] of the same binder?
**A.** Its kon is 1.47e+06 M⁻¹ s⁻¹.

**Q.** What about the Kd [12] of the same binder?
**A.** Its Kd is 117 nM.

**Q.** And the koff [12]?
**A.** Its koff is 0.0465 s⁻¹.

**Q.** What about the kon [12] of the same binder?
**A.** The kon was 398000 M⁻¹ s⁻¹.

**Q.** What about the Kd [13] of the same binder?
**A.** The Kd was 0.137 nM.

**Q.** What about the koff [13] of the same binder?
**A.** The koff was 0.00013 s⁻¹.

**Q.** What about the kon [13] of the same binder?
**A.** Its kon is 943000 M⁻¹ s⁻¹.

**Q.** What about the IC50 [14] of the same binder?
**A.** The IC50 was 28.5 nM.

**Q.** What about the “IC50, luminescence (RLU), hOX40 reporter cells with 50 ng/mL hOX40L” value [16] of the same binder?
**A.** The value was 0.909 nM.
